According to the DeepSol protein solubility set:

assay: soluble on expression in E. coli; label from the status in PepcDB or PDB records

| Sequence | soluble on expression in E. coli |
| --- | --- |
| MGSDKIHHHHHHMKRVERVIITCAVTGSIHTPSMSPYLPVTPEQIAADSVAAAQAGAAMLHLHARNPRTGRPEQTPERFMEFLPRIREQCGAILNITTGGGLGMTLEERLAPAIAARPEVASMNMGSLNFNISGAAGKIRQFQHEWEKPYLEGTNDFILSNTFSQIEHGMRVLGESGTRFEFECYDVGHLYNLAHFVDRGLVKPPFFVQCIFGILGGIGADPENLLHMRAIADRLFGADYLLSVLAAGRHQMPFVSLSAILGGSVRVGLEDSLFIARHQLARSNAEQVAKIRRIVEELGLTVATADEARAMLATKGGDNVGF | not soluble |
| MGSDKIHHHHHHMRYRPVIGLEIHVQLSTKTKAFCSCPADVFELPPNTAICPVCTGQPGALPVPNEEMIRFAVKTALALNCKIHKYSRFDRKNYFYPDLPKGYQISQYFYPIATEGFLEIDGDEGRKKVRIRRLHLEEDAGKLVHEGDSITRASYSLVDMNRCGVPLIEIVTEPDISSPREARVFMEKLRSIVRYLGVSTGDMEKGALRCDANISVVDTETGRQSNRVEVKNMNSFRFVERALEYEFERIVKAMERGEDVERETRGWDMATKITVSMRGKEEESDYRYFPEPDIPPVVLSDEYLEEVKKELPELPDEKAERFMREYGLPEYDAKVLTSSKELAEFFEECVKVVNRPKDLSNWIMTEVLRELNERNIEITESKLTPQHFADLFKLMDEGKISIKIAKEIFPEVFETGKMPSQIVEEKGLTQINDEKLIEELVKKAMEQNPKAVQDYKSGKKKAAGFFVGYVMRETKGKANPELTNRIIQKLLEGE | not soluble |
| MGSDKIHHHHHHMNTHKHARLTFLRRLEMVQQLIAHQVCVPEAARAYGVTAPTVRKWLGRFLAQGQAGLADASSRPTVSPRAIAPAKALAIVELRRKRLTQARIAQALGVSASTVSRVLARAGLSHLADLEPAEPVVRYEHQAPGDLLHIDIKKLGRIQRPGHRVTGNRRDTVEGAGWDFVFVAIDDHARVAFTDIHPDERFPSAVQFLKDAVAYYQRLGVTIQRLLTDNGSAFRSRAFAALCHELGIKHRFTRPYRPQTNGKAERFIQSALREWAYAHTYQNSQHRADAMKSWLHHYNWHRPHQGIGRAVPISRLNLDEYNLLTVHS | not soluble |
| MNWYEKLSEYFPIEEMKSKAHMEALLKERSDIYHKDEGKHHILMFAEFDSFIFVDYLYVSKDARGQGLGGKLIAKLKKKNKPILLEVEPVDEDDTDTEKRLRFYQREHFKHAQSIGYRRRSLATNEVNKIEILYWSPKTESEEEILEAMKQTYENIHTYKDEKWYGESYEKTDEVLEIIDEEKQKNIFDQLS | not soluble |
| MGSDKIHHHHHHMTNTFSFDWAIAPETPDTFFAEYFEKKPMLIKRGQPGYFSDLLSYGEIDRVVSTMGLHVPEINVTRADGNITPADFAYETGQIDPVRVNQLHADGATVILSGLHERLPALARYCRAMEAAMSARVQTNIYMTPPGNQGFNPHYDGHDVLVLQVAGTKEWRIYGTPVELPLADQAFERGMDVGEEAQRFVLEPGDAVYIPRGMAHDAVATDETSLHITTGLMFRTWADALAEAVIAKAHREPSLRRALPPGFANNGVDLDDYKDTFAELIELVGDAHVGKLLSGFREEFLTARVPRVEGQMAQLAKLDGLTMDSRMGAHPHIVFGIHDVPNEDQVCLVAQGAEIILPAHARDAMEFCITTADFRLGDMEGDLDDAGKMVLAKRFVREGLMRVL | not soluble |
| MAHHHHHHMSDLDKIRSKLEALKSKTEVKTDERIEIAKKNDPFNDLKVHILNVLDETRKCIREKESLQNVHGNNIEVIKRGNIIYNNMKNLDTYFLKLEEILKKQEKKKYAYSREELFDKNETFELLKRQIYECKKLSNYEHIKDTCVMDFSDFKNKQQVESKS | soluble |
| MANLFKLGAENIFLGRKAATKEEAIRFAGEQLVKGGYVEPEYVQAMLDREKLTPTYLGESIAVPHGTVEAKDRVLKTGVVFCQYPEGVRFGEEEDDIARLVIGIAARNNEHIQVITSLTNALDDESVIERLAHTTSVDEVLELLAGRK | soluble |
| MDTTIGVIGNKVVHVIKENDSVKTAAEEMKKHNLGALVVIDDNDKIVGIITERDIVKVVAEGKLDAKVKDYMTRNVIGVTEDTPITDALEIMLDHGFRHLPIIGKDGKVIGIVSIRDLSKAILDPHFFQFKKEAADVKGSGYVCPVCGMEIDEYGYCGCGAGSG | soluble |
| MITEKRHELILTELSKQDFLTLQELIERTGCSASTIRRDLSKLQKFGKLKRVHGGATLNQSSALEPNLADKRSTNLREKQEIGRLAASQIENRDCVFLDAGSTTLEMIPYIKASDIIVVTNGLTHVEELLKHGIRTLIIGGEVKSTTFATVGASALETLRRYRFDKVFLGMNGIDLKYGLTTPDEQEAIIKHHAMQLGTQVYVLIDHDKYEKVYFAHVPLEEGVSIITSKKAQSLKQFHLFAGQYNFIGGTLLEHHHHHH | soluble |
| MTRIAIVGAGPAGLSLAYFLKGSRKVEATVYESMPEPGLKPCAWGLITGIENIIPIPNETIISEIRGFRIYLDNKLVFDIRTDNKLGYIIDKPLFLKRLSQEVNVEFNSKVVKKDDKYYINDKSLDHDKVIFATGHYSVSKSMSIPAIQYITDYEIDKEVVEFYFYSGFLGYAWVFPDREGSKIGIGGYAEVPELKERLKQILKGRIRTFHGARVTDYGVIEDRLDGNYTGEALGTVYAITGEGIRPSIISSKILADSILNRKDFKKEFKKSKLYWSLNWHAKIIKMTKENDPGTARLSKALLNNDPQLILKFAIGEFNRVDLIKIFGRSLILEHHHHHH | soluble |
| MSIMSYTGGTVVAMAGDECVCIASDLRIGEQMTTIATDQKKVHKVTDKVYVGLAGFQSDARTVLEKIMFRKNLYELRENRNIKPQVLSEMISNLAYQHRFGSYFTEPLVAGLDDTNKPYICCMDTIGCVSAPRDFVAVGTGQEYLLGVCENFWRENMKPDELFEATAQSILSCLERDAASGWGAVVYTITKDKVNVSTIKARMD | not soluble |
| MSLKISLENVGCASQIGKRKENEDRFDFAQLTDEVLYFAVYDGHGGPAAADFCHTHMEKCIMDLLPKEKNLETLLTLAFLEIDKAFSSHARLSADATLLTSGTTATVALLRDGIELVVASVGDSRAILCRKGKPMKLTIDHTPERKDEKERIKKCGGFVAWNSLGQPHVNGRLAMTRSIGDLDLKTSGVIAEPETKRIKLHHADDSFLVLTTDGINFMVNSQEICDFVNQCHDPNEAAHAVTEQAIQYGTEDNSTAVVVPFGAWGKYKNSEINFSFSRSFASSGRWAEGHHHHHH | soluble |
| MTRVLVLGGGSGGLVAANKVKRLLGKEVEVTLVDRNTHHEFMPAYPWVAFGMREPEAIRRPLANLEKRGIRYLQATVEALDPERNRVKTTAGELSYDYLIVSLGAEALPSPAQDGHAPWSLEGALKLREALRTFKGGKVVVGVSSPYYPCPPAPYEVAGQVEFALKVKGVRDKSTVEVFHLNPAPLAGMGPVISGKVLEILKSKGIAFHGGFEPVEFAGGKVKAKDGRELSYDLLILTPPFAPNRVVRESPLAGPQGFPEVDRMTFRSPRFPNVFVIGDTVNPALMLPPAGVVAHFQGEYVAGVIASDLKGAYIGEPFNPVAMCIMDFGDNALLPQCAFDRVLAGTGMPSCGVMAVGKWVRVTKMLFEGFWFATLIELEHHHHHH | soluble |
| MSKRCASDRDDKDSEPVKKPRFSIANILDEVEDEEDVEVDVEDVDDVDLSSIPSKSPERSRGRPKIGLKMKEGNLPIECKLEGSELWAKFFDLGTEMIITKSGRRMFPTVKVSFTNVILDALYYIFLDVVPVDSKRYRYIYNKSAWLTAGKAEPVPKNRYYLHPDSPFTGDQLLKHVISFEKTKLTNNEVDKTGHLILNSMHKYQPRIHIVQRQKANPLDPNKVVMSEEKHCTYTFPETQFMAVTAYQNQLITKLKIEKNPFAKGFRDPTGRSPDEMERSPGDMMLSNFYHSSALQQAMFQQCLSKTLQLNPSIMMLYQNVFPTGNSLPAAPTVPGNPAEISIKSE | soluble |
| MGSDKIHHHHHHMEKSIQDTIHGVIKLEDWMVEIVDTPQFQRLRRINQLGFANLVYPGANHTRFEHSLGVMHVTRILQERMGFDDVVVAAALLHDVGHAPFSHGSERLLEKYASYNHETISKVVRGELKDVLKNLGFRISEIEAIVTGKRRSVVNGEIDADRMDYLVRDSHYTGVAYGVFDIYRLIDKIKFDGAVVIEQGGVKAAESLLISRFLMYPTVYFHHVCRIARKMYERAMERIIEAGFEAENLLEMDDVDAMMLLKEKERETYDRLNNRRLFKRAIYVSRRSLDFREVMRTSERRAEREVAEMAGVDERYVIVDIPPVEEMRESGVMVDTESGLKPLEEVSPLVKALKDAAVENWRLGVYTDRRFVDKVGKAAADYFGIEKVVQKSLDEIFPQ | not soluble |
| MDRFDAMQAFARVVDTGSFTKAAETLHMSRTSVTQLVQQLEARLRVRLLNRTTRKLNLTADGAAYYERVVRLLAELDDAETSLSSAALAPRGRLRIDVPSPLARLLLIPALPEFHARYPEIQIDLGVSDRLVDLIDENVDCVIRGGELRDQSLMARRVGDLQLGVYAAPAYLQRAGVPSHPRELEDSHQRIVGFLWARTGKALPYAMRRGEECLRVAGRHVLAVDDGNAYLAAGLAGLGILWLPHYMAREPLARGELLPLFEDWSLEPMPLYLAFPPNRHVSGKLRVFIEWVAELIARHAPPLHPPL | not soluble |
| MGSDKIHHHHHHMSKVFIIGLPRTGTTSISVALLEMGLSVAHTAFTKKAFEMADAVTDAPCFSDYMHLDRIFPHAKFIYLTREMAKWVPSIIMLLEKMAPHLDPKTGKFNPILKRSFHHTFPGTLPLTENELIDCYTRHEQAVLSYFEGRDDFLSIDISKQGSLLEMKMFLGIEAQGSADFPKLNVGRDVASWKDYKHPNKINSNLAGVEHRKYYDYALVDYRTY | not soluble |
| MGSDKIHHHHHHMRPAFAGIDFGTSNSTVGVVRNGQPHLVALEGGQVTLPSAVFFNFEDGRICFGRQAIANYTDSVEGRLMRSLKSVLGSSLAHEKTRIKARSIGFMEIIGLFLGHLRKKLEEDGGDLVETVVLGRPVQFVDDDPQADANAQSDLEKAAHAQGFKHIAFQFEPIAAALDYEQRVTREELALIIDMGGGTSDFSVVRVSPERARLPDRKDDILASRGVHIGGTDFDRLLSIAHVMPQLGYLTPTKDGKRNLPASYFIDLATWQRINLVYTAKAMTHLRQIRYEAARADLVDRFIHIVEHRYGHALAALVEKAKIELTDLSSAEVAVRLSDVEFAAEITRDGLDATIAREIERVTATVAETMRDAAVKPSDITAVFLTGGSTAIPLARREILSLVPQASVIDGDMFGSVGLGLALDAQRKFG | not soluble |
| MERILEKVRAKSEIPVYDKSIENVLSAILTTNDFWKIVDLSEEPLPLVADIIRILEEEGLVKISNGIEFTEKGNEFIKSYGIGAKDNSVCECCEGRGVSLKNYQDLLERFKEIVKNRPMPKHEYDQGFVTPECTISRIALMNSRGDLFNKDVLVLGDDDLTSIALMLSNLPKKIVVVDIDDRLINFIKEVAEQLNYKNIEVITLDLRKPLPEKYSRAFDTFITDPPETVYAVKTFIGRGISALKGERRAGYFGITRRESSLDKWREIQRTLINDFNVVITDIIRNFNHYVNWGYEEETRAWKLAPVKKKPEDIWYKSYMFRIETLKDSRGFEEEVDVGDELYNDAESSTT | not soluble |
| MGSDKIHHHHHHMDEMKVIEIIKKTLKFSNENIVKGIDDDCAIIKIDENFYLVATTDMMVKKAHIPSILSPYEIGGRILTANVSDIASMGAKPLAFLVSISLSKEEANEKFIKELYSGLDDFSKLYDCPVVGGDTNRGDELILSGTAFGITDNPIYRRGKVGDDICVTNDLGRVYCALTLYYMLKENKISYKEFERLCQKYPKIIEKLRKPIARIKEGLLMNKLINGCCDISDGLGKEITYFKNFEIYSDRIFKLIPEDVIEFCDAFNLNPIKVALNSGEEFELLFTTSKFNKVKDSLKGYSKIYKIGKIIEDGQFIDGEEFYGGGYIHKW | not soluble |
| MHVWPVQDAKARFSEFLDACITEGPQIVSRRGAEEAVLVPIGEWRRLQAAARPSLKQLLLSDSARTEMLVPERGKARRRQVEPLR | soluble |
